This passage reports activity results from US20240389562.

Test in all cases: cell_activity
Data set [1] has as its system XTN TALEN 3 left monomer. To be noted: Cel-1 assay, value for the pair.
The test system of data set [2] is XTN TALEN 1 left monomer. To be noted: Cel-1 assay, value for the pair.
Data set [3] concerns XTN TALEN 3 right monomer. To be noted: Cel-1 assay, value for the pair.
Data set [4] deals with XTN TALEN 2 right monomer. The following applies: Cel-1 assay, value for the pair; most active.
In data set [5] the test system is XTN TALEN 2 left monomer. To be noted: Cel-1 assay, value for the pair; most active.
Data set [6] deals with XTN TALEN 1 right monomer. To be noted: Cel-1 assay, value for the pair.

For “TCTGCCAACCTCACAT (double strand) [TALEN 3 left half-site]”, the activity in data set [1] worked out at 3%. As to “TATGCGGACCTTTATCTA (double strand) [TALEN 1 left half-site]”, the activity in data set [2] was determined as 5%. As to “GTCATTGAGCAAATGCA (double strand) [TALEN 3 right half-site]”, the activity in data set [3] was determined as 3%. “TTCCTAAGTGCAGGGA (double strand) [TALEN 2 right half-site]” showed an activity in data set [4] of 9%.

In turn, “TGCAGTATGCGGACCTT (double strand) [TALEN 2 left half-site]” registered an activity in data set [5] of 9%. Regarding “AGTGCAGGGAGCCACA (double strand) [TALEN 1 right half-site]”, the activity in data set [6] is 5%.
